Experimental data reported in US7662583B2, “Bioreactor containing cells expressing glycosyltransferase nucleic acids isolatable from Arabidopsis” (The University of York, priority 2003, dated 2010).

Experiments:
[1] = UGT enzyme reaction with quercetin (recombinant UGTs, HPLC); type: biochemical, Arabidopsis; conditions: for di-O-glucoside formation from quercetin: low substrate concentration, time parameter varied; for Specific activity (nkat/mg protein) 3-O-glc: quercetin glucosylated at 3-OH; for Specific activity (nkat/mg protein) 3-O-glc / Specific activity (nkat/mg protein) 3′-O-glc / Specific activity (nkat/mg protein) 4′-O-glc / Specific activity (nkat/mg protein) 7-O-glc: 0.5 mM quercetin, 5 mM UDP-glucose, 30° C.; for Specific activity (nkat/mg protein) 3′-O-glc: quercetin glucosylated at 3′-OH; for Specific activity (nkat/mg protein) 4′-O-glc: quercetin glucosylated at 4′-OH; for Specific activity (nkat/mg protein) 7-O-glc: quercetin glucosylated at 7-OH
Outline: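 Recombinant Arabidopsis UGTs (2 μg) incubated with 0.5 mM quercetin and 5 mM UDP-glucose in 100 mM Tris-HCl pH 7.0 at 30 °C for 1 h. Quercetin glucosides separated from aglycone by reverse-phase C18 HPLC (acetonitrile gradient, 0.1% TFA), detected at 370 nm.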

[2] = Whole-cell biocatalyst assay, E. coli expressing UGT in culture medium; type: cell-based
Procedure: FIG. 14 Whole-cell biocatalyst assay using UGT71C1. E. coli cells expressing recombinant were used in the biocatalyst assay. After incubation with 0.1 mM quercetin and 0.1 mM IPTG, cells were collected by centrifugation, extracted with 80% methanol and both the cell extracts (pellet) and culture medium (supernatant) were analysed using HPLC. (A) Changes in the combined amounts of aglycone/glucoside over a time-course of 0-48 h. (B) Changes in the level of different glucosides and aglycone in the culture medium over the same time-course.
Using the foundation established in the preceding example, we went on to investigate the potential of E. coli expressing plant UGTs as whole-cell biocatalysts to synthesise glucosides of quercetin. In the first instance, we used E. coli grown in 75 ml of standard culture medium. […] Table 2 describes results in which 7 different UGTs are expressed in E. coli and the identity and quantity of different glucosides recovered in the medium were analysed by HPLC. […] There was considerable variation in the level of different glucosides synthesised by the cells, although even under these non-optimised conditions, each of the four monoglucosides and two di-O-glucosides could be formed.

[3] = E. coli, 2x YT medium, 0.1 mM IPTG, 0.1 mM quercetin, 24 h

B1: UGT76E12: Arabidopsis recombinant glycosyltransferase (protein, UniProt Q94AB5 1-458, looked up)
Flavonol …: MQVLGMEEKPARRSVVLVPFPAQGHISPMMQLAKTLHLKGFSITVVQTKFNYFSPSDDFTHDFQFVTIPESLPESDFKNLGPIQFLFKLNKECKVSFKDCLGQLVLQQSNEISCVIYDEFMYFAEAAAKECKLPNIIFSTTSATAFACRSVFDKLYANNVQAPLKETKGQQEELVPEFYPLRYKDFPVSRFASLESIMEVYRNTVDKRTASSVIINTASCLESSSLSFLQQQQLQIPVYPIGPLHMVASAPTSLLEENKSCIEWLNKQKVNSVIYISMGSIALMEINEIMEVASGLAASNQHFLWVIRPGSIPGSEWIESMPEEFSKMVLDRGYIVKWAPQKEVLSHPAVGGFWSHCGWNSTLESIGQGVPMICRPFSGDQKVNARYLECVWKIGIQVEGELDRGVVERAVKRLMVDEEGEEMRKRAFSLKEQLRASVKSGGSSHNSLEEFVHFIRTL
Question: Which “di-O-glucoside formation from quercetin” value [1] does the source give for B1 here?
Answer: The value was “significant levels of di-O-glucosides”.

Question: What about the “Specific activity (nkat/mg protein) 3-O-glc” value [1] of the same molecule?
Answer: The value was 1.16 nkat/mg protein.

Question: What about the “Specific activity (nkat/mg protein) 3′-O-glc” value [1] of the same molecule?
Answer: Its value is “— (Activity lower than 0.02 nkat/mg protein has been considered as trace activity and is not shown in the Table.)”.

Question: What about the “Specific activity (nkat/mg protein) 4′-O-glc” value [1] of the same molecule?
Answer: The value was “— (Activity lower than 0.02 nkat/mg protein has been considered as trace activity and is not shown in the Table.)”.

Question: And the “Specific activity (nkat/mg protein) 7-O-glc” value [1]?
Answer: Its value is 1.35 nkat/mg protein.

Question: And the “Culture medium (μg/ml in supernatant) 3,7-di-O-glc” value [2, 3]?
Answer: The value was 0.71 µg/mL.

Question: What about the “Culture medium (μg/ml in supernatant) 7-O-glc” value [2, 3] of the same molecule?
Answer: The value was 4.74 µg/mL.

Question: What about the “Culture medium (μg/ml in supernatant) 3-O-glc” value ([2]; E. coli, 2x YT medium, 0.1 mM IPTG, 0.1 mM quercetin, 24 h, no added UDP-glucose) of the same molecule?
Answer: Its value is 1.41 µg/mL.

B2: UGT84B1: Arabidopsis recombinant glycosyltransferase (protein, UniProt O22182 1-456, looked up)
UDP-glycosyltransferase 84B1: MGSSEGQETHVLMVTLPFQGHINPMLKLAKHLSLSSKNLHINLATIESARDLLSTVEKPRYPVDLVFFSDGLPKEDPKAPETLLKSLNKVGAMNLSKIIEEKRYSCIISSPFTPWVPAVAASHNISCAILWIQACGAYSVYYRYYMKTNSFPDLEDLNQTVELPALPLLEVRDLPSFMLPSGGAHFYNLMAEFADCLRYVKWVLVNSFYELESEIIESMADLKPVIPIGPLVSPFLLGDGEEETLDGKNLDFCKSDDCCMEWLDKQARSSVVYISFGSMLETLENQVETIAKALKNRGLPFLWVIRPKEKAQNVAVLQEMVKEGQGVVLEWSPQEKILSHEAISCFVTHCGWNSTMETVVAGVPVVAYPSWTDQPIDARLLVDVFGIGVRMRNDSVDGELKVEEVERCIEAVTEGPAAVDIRRRAAELKRVARLALAPGGSSTRNLDLFISDITIA
Question: With B2 as the molecule, how does the “Specific activity (nkat/mg protein) 3-O-glc” value [1] read?
Answer: Its value is “— (Activity lower than 0.02 nkat/mg protein has been considered as trace activity and is not shown in the Table.)”.

Question: And the “Specific activity (nkat/mg protein) 3′-O-glc” value [1]?
Answer: The value was “— (Activity lower than 0.02 nkat/mg protein has been considered as trace activity and is not shown in the Table.)”.

Question: What about the “Specific activity (nkat/mg protein) 4′-O-glc” value [1] of the same molecule?
Answer: Its value is “— (Activity lower than 0.02 nkat/mg protein has been considered as trace activity and is not shown in the Table.)”.

Question: What about the “Specific activity (nkat/mg protein) 7-O-glc” value [1] of the same molecule?
Answer: Its value is 0.14 nkat/mg protein.

Question: And the “Culture medium (μg/ml in supernatant) 7-O-glc” value [2, 3]?
Answer: The value was 4.83 µg/mL.

B3: UGT74F1: Arabidopsis recombinant glycosyltransferase (protein, UniProt O22820 1-449, looked up)
Flavonol …: MEKMRGHVLAVPFPSQGHITPIRQFCKRLHSKGFKTTHTLTTFIFNTIHLDPSSPISIATISDGYDQGGFSSAGSVPEYLQNFKTFGSKTVADIIRKHQSTDNPITCIVYDSFMPWALDLAMDFGLAAAPFFTQSCAVNYINYLSYINNGSLTLPIKDLPLLELQDLPTFVTPTGSHLAYFEMVLQQFTNFDKADFVLVNSFHDLDLHEEELLSKVCPVLTIGPTVPSMYLDQQIKSDNDYDLNLFDLKEAALCTDWLDKRPEGSVVYIAFGSMAKLSSEQMEEIASAISNFSYLWVVRASEESKLPPGFLETVDKDKSLVLKWSPQLQVLSNKAIGCFMTHCGWNSTMEGLSLGVPMVAMPQWTDQPMNAKYIQDVWKVGVRVKAEKESGICKREEIEFSIKEVMEGEKSKEMKENAGKWRDLAVKSLSEGGSTDININEFVSKIQIK
Question: What does the source list for B3?
Answer: Culture medium (μg/ml in supernatant) 4′-O-glc [2, 3]: 0.19 µg/mL; Culture medium (μg/ml in supernatant) 7-O-glc [2, 3]: 0.53 µg/mL

B4: UGT71B1: Arabidopsis recombinant glycosyltransferase (protein, UniProt Q9LSY9 1-473, looked up)
UDP-glycosyltransferase 71B1: MKVELVFIPSPGVGHIRATTALAKLLVASDNRLSVTLIVIPSRVSDDASSSVYTNSEDRLRYILLPARDQTTDLVSYIDSQKPQVRAVVSKVAGDVSTRSDSRLAGIVVDMFCTSMIDIADEFNLSAYIFYTSNASYLGLQFHVQSLYDEKELDVSEFKDTEMKFDVPTLTQPFPAKCLPSVMLNKKWFPYVLGRARSFRATKGILVNSVADMEPQALSFFSGGNGNTNIPPVYAVGPIMDLESSGDEEKRKEILHWLKEQPTKSVVFLCFGSMGGFSEEQAREIAVALERSGHRFLWSLRRASPVGNKSNPPPGEFTNLEEILPKGFLDRTVEIGKIISWAPQVDVLNSPAIGAFVTHCGWNSILESLWFGVPMAAWPIYAEQQFNAFHMVDELGLAAEVKKEYRRDFLVEEPEIVTADEIERGIKCAMEQDSKMRKRVMEMKDKLHVALVDGGSSNCALKKFVQDVVDNVP
Question: What does the source list for B4?
Answer: Specific activity (nkat/mg protein) 3-O-glc [1]: 1.85 nkat/mg protein; Specific activity (nkat/mg protein) 3′-O-glc [1]: — (Activity lower than 0.02 nkat/mg protein has been considered as trace activity and is not shown in the Table.); Specific activity (nkat/mg protein) 4′-O-glc [1]: — (Activity lower than 0.02 nkat/mg protein has been considered as trace activity and is not shown in the Table.); Specific activity (nkat/mg protein) 7-O-glc [1]: — (Activity lower than 0.02 nkat/mg protein has been considered as trace activity and is not shown in the Table.)

B5: UGT71C1: Arabidopsis recombinant glycosyltransferase (protein, UniProt O82381 1-481, looked up)
Flavonol …: MGKQEDAELVIIPFPFSGHILATIELAKRLISQDNPRIHTITILYWGLPFIPQADTIAFLRSLVKNEPRIRLVTLPEVQDPPPMELFVEFAESYILEYVKKMVPIIREALSTLLSSRDESGSVRVAGLVLDFFCVPMIDVGNEFNLPSYIFLTCSAGFLGMMKYLPERHREIKSEFNRSFNEELNLIPGYVNSVPTKVLPSGLFMKETYEPWVELAERFPEAKGILVNSYTALEPNGFKYFDRCPDNYPTIYPIGPILCSNDRPNLDSSERDRIITWLDDQPESSVVFLCFGSLKNLSATQINEIAQALEIVDCKFIWSFRTNPKEYASPYEALPHGFMDRVMDQGIVCGWAPQVEILAHKAVGGFVSHCGWNSILESLGFGVPIATWPMYAEQQLNAFTMVKELGLALEMRLDYVSEDGDIVKADEIAGTVRSLMDGVDVPKSKVKEIAEAGKEAVDGGSSFLAVKRFIGDLIDGVSISK
Question: For B5, which “di-O-glucoside formation from quercetin” value [1] is on record?
Answer: The value was “significant levels of di-O-glucosides”.

Question: And the “Specific activity (nkat/mg protein) 3-O-glc” value [1]?
Answer: Its value is “— (Activity lower than 0.02 nkat/mg protein has been considered as trace activity and is not shown in the Table.)”.

Question: And the “Specific activity (nkat/mg protein) 3′-O-glc” value [1]?
Answer: The value was 1.19 nkat/mg protein.

Question: And the “Specific activity (nkat/mg protein) 4′-O-glc” value [1]?
Answer: The value was “— (Activity lower than 0.02 nkat/mg protein has been considered as trace activity and is not shown in the Table.)”.

Question: And the “Specific activity (nkat/mg protein) 7-O-glc” value [1]?
Answer: The value was 0.85 nkat/mg protein.

Question: What about the “Culture medium (μg/ml in supernatant) 3′-O-glc” value [2, 3] of the same molecule?
Answer: Its value is 8.00 µg/mL.

Question: What about the “Culture medium (μg/ml in supernatant) 7,3′-di-O-glc” value [2, 3] of the same molecule?
Answer: Its value is 10.90 µg/mL.

Question: What about the “Culture medium (μg/ml in supernatant) 7-O-glc” value [2, 3] of the same molecule?
Answer: Its value is 2.12 µg/mL.

Question: And the “aglycone converted to glucosides” value ([2]; within 6 h, E. coli in 75 ml standard culture medium, no supplementary UDP-glucose)?
Answer: The value was about 50%.
